T1: human EphA7 extracellular region-SEAP-His protein (human, UniProt Q15375 28-555)
T1 construct: extracellular domain; also called hEphA7-SEAP-His
T1 sequence (looked up): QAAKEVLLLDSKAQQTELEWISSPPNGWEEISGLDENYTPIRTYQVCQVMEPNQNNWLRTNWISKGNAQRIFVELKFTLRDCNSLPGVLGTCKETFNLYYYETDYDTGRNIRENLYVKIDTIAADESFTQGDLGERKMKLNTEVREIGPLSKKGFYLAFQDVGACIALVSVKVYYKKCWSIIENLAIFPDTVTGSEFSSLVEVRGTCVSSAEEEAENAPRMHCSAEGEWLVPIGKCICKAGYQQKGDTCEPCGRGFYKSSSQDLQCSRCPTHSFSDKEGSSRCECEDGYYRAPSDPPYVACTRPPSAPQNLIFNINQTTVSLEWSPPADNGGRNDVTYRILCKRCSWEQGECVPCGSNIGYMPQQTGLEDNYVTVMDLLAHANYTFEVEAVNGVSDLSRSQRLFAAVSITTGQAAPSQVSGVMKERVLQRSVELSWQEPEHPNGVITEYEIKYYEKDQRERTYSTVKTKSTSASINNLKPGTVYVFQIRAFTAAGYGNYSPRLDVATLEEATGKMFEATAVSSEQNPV

T2: human EphB4 extracellular region-SEAP-His protein (human, UniProt P54760 16-539)
T2 construct: extracellular domain; also called hEphB4-SEAP-His
T2 sequence (looked up): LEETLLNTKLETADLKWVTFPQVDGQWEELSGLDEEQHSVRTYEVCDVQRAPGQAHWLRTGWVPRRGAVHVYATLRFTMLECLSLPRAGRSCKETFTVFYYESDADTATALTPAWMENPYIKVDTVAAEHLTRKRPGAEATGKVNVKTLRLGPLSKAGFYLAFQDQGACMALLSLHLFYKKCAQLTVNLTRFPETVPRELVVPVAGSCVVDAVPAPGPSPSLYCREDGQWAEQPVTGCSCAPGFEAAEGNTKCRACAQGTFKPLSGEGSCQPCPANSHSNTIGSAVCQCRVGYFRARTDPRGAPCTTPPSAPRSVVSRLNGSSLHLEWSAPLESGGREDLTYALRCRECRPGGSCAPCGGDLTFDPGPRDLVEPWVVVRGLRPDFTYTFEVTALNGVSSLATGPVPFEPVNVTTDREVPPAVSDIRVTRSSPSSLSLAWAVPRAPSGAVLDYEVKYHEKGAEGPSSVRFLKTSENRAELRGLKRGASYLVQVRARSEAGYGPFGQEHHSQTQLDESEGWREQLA


Legend:
[1] = target: T1, human EphA7 extracellular …; test: ELISA
[2] = target: T2, human EphB4 extracellular …; test: ELISA

Row | A450 as % of hEphA4-SEAP-His [1] [%] | A450 as % of hEphA4-SEAP-His [2] [%] | Binder
1 | 6.8 | 7.4 | humanized antibody No. 151 (antibody, human IgG2, human Ig kappa; also called L1-5/HA4) heavy: QIQLVQSGSELKKPGASVKVSCKASGYTFTDYSMHWVRQAPGQGLKWMGWINTETGEPTYAQGFTGRFVFSLDTSVSTAYLQISSLKAEDTAVYYCARIPLYYYGSRYWYFDVWGQGTTVTVSSASTKGPSVFPLAPSSRSTSESTAALGCLVKDYFPEPVTVSWNSGALTSGVHTFPAVLQSSGLYSLSSVVTVPSSNFGTQTYTCNVDHKPSNTKVDKTVERKSCVECPPCPAPPAAAPSVFLFPPKPKDTLMISRTPEVTCVVVDVSHEDPEVQFNWYVDGVEVHNAKTKPREEQFNSTFRVVSVLTVVHQDWLNGKEYKCKVSNKGLPAPIEKTISKTKGQPREPQVYTLPPSREEMTKNQVSLTCLVKGFYPSDIAVEWESNGQPENNYKTTPPMLDSDGSFFLYSKLTVDKSRWQQGNVFSCSVMHEALHNHYTQKSLSLSPG light: DIQMTQSPSSLSASVGDRVTITCRASENIYRNLAWYQQKPGKAPKLLLYAATNLADGVPSRFSGSGSGTDYTLTISSLQSEDFATYYCQHFWGTPWTFGQGTKVEIKRTVAAPSVFIFPPSDEQLKSGTASVVCLLNNFYPREAKVQWKVDNALQSGNSQESVTEQDSKDSTYSLSSTLTLSKADYEKHKVYACEVTHQGLSSPVTKSFNRGEC
2 | 6 | 6.5 | humanized antibody No. 157 (antibody, human IgG2, human Ig kappa; also called L1-6/HA1) heavy: QVQLVQSGSELKKPGASVKVSCKASGYTFTDYSMHWVRQAPGQGLEWMGWINTETGEPTYAQGFTGRFVFSLDTSVSTAYLQISSLKAEDTAVYYCARIPLYYYGSRYWYFDVWGQGTTVTVSSASTKGPSVFPLAPSSRSTSESTAALGCLVKDYFPEPVTVSWNSGALTSGVHTFPAVLQSSGLYSLSSVVTVPSSNFGTQTYTCNVDHKPSNTKVDKTVERKSCVECPPCPAPPAAAPSVFLFPPKPKDTLMISRTPEVTCVVVDVSHEDPEVQFNWYVDGVEVHNAKTKPREEQFNSTFRVVSVLTVVHQDWLNGKEYKCKVSNKGLPAPIEKTISKTKGQPREPQVYTLPPSREEMTKNQVSLTCLVKGFYPSDIAVEWESNGQPENNYKTTPPMLDSDGSFFLYSKLTVDKSRWQQGNVFSCSVMHEALHNHYTQKSLSLSPG light: DIQMTQSPSSLSASVGDRVTITCRASENIYRNLAWYQQKPGKAPQLLLYAATNLADGVPSRFSGSGSGTDYTLTISSLQPEDFATYYCQHFWGTPWTFGQGTKVEIKRTVAAPSVFIFPPSDEQLKSGTASVVCLLNNFYPREAKVQWKVDNALQSGNSQESVTEQDSKDSTYSLSSTLTLSKADYEKHKVYACEVTHQGLSSPVTKSFNRGEC
3 | 6.3 | 6.4 | humanized antibody No. 154 (antibody, human IgG2, human Ig kappa; also called L1-5/HK1) heavy: QVQLVQSGSELKKPGASVKVSCKASGYTFTDYSMHWVRQAPGQGLEWMGWINTETGEPTYADDFKGRFVFSLDTSVSTAYLQISSLKAEDTAVYYCARIPLYYYGSRYWYFDVWGQGTTVTVSSASTKGPSVFPLAPSSRSTSESTAALGCLVKDYFPEPVTVSWNSGALTSGVHTFPAVLQSSGLYSLSSVVTVPSSNFGTQTYTCNVDHKPSNTKVDKTVERKSCVECPPCPAPPAAAPSVFLFPPKPKDTLMISRTPEVTCVVVDVSHEDPEVQFNWYVDGVEVHNAKTKPREEQFNSTFRVVSVLTVVHQDWLNGKEYKCKVSNKGLPAPIEKTISKTKGQPREPQVYTLPPSREEMTKNQVSLTCLVKGFYPSDIAVEWESNGQPENNYKTTPPMLDSDGSFFLYSKLTVDKSRWQQGNVFSCSVMHEALHNHYTQKSLSLSPG light: DIQMTQSPSSLSASVGDRVTITCRASENIYRNLAWYQQKPGKAPKLLLYAATNLADGVPSRFSGSGSGTDYTLTISSLQSEDFATYYCQHFWGTPWTFGQGTKVEIKRTVAAPSVFIFPPSDEQLKSGTASVVCLLNNFYPREAKVQWKVDNALQSGNSQESVTEQDSKDSTYSLSSTLTLSKADYEKHKVYACEVTHQGLSSPVTKSFNRGEC
4 | 5.6 | 5.7 | humanized antibody No. 155 (antibody, human IgG2, human Ig kappa; also called L1-5/HK4) heavy: QIQLVQSGSELKKPGASVKVSCKASGYTFTDYSMHWVRQAPGQGLKWMGWINTETGEPTYADDFKGRFVFSLDTSVSTAYLQISSLKAEDTAVYYCARIPLYYYGSRYWYFDVWGQGTTVTVSSASTKGPSVFPLAPSSRSTSESTAALGCLVKDYFPEPVTVSWNSGALTSGVHTFPAVLQSSGLYSLSSVVTVPSSNFGTQTYTCNVDHKPSNTKVDKTVERKSCVECPPCPAPPAAAPSVFLFPPKPKDTLMISRTPEVTCVVVDVSHEDPEVQFNWYVDGVEVHNAKTKPREEQFNSTFRVVSVLTVVHQDWLNGKEYKCKVSNKGLPAPIEKTISKTKGQPREPQVYTLPPSREEMTKNQVSLTCLVKGFYPSDIAVEWESNGQPENNYKTTPPMLDSDGSFFLYSKLTVDKSRWQQGNVFSCSVMHEALHNHYTQKSLSLSPG light: DIQMTQSPSSLSASVGDRVTITCRASENIYRNLAWYQQKPGKAPKLLLYAATNLADGVPSRFSGSGSGTDYTLTISSLQSEDFATYYCQHFWGTPWTFGQGTKVEIKRTVAAPSVFIFPPSDEQLKSGTASVVCLLNNFYPREAKVQWKVDNALQSGNSQESVTEQDSKDSTYSLSSTLTLSKADYEKHKVYACEVTHQGLSSPVTKSFNRGEC
5 | 6.2 | 6 | humanized antibody No. 153 (antibody, human IgG2, human Ig kappa; also called L1-5/HA2) heavy: QVQLVQSGSELKKPGASVKVSCKASGYTFTDYSMHWVRQAPGQGLKWMGWINTETGEPTYAQGFTGRFVFSLDTSVSTAYLQISSLKAEDTAVYYCARIPLYYYGSRYWYFDVWGQGTTVTVSSASTKGPSVFPLAPSSRSTSESTAALGCLVKDYFPEPVTVSWNSGALTSGVHTFPAVLQSSGLYSLSSVVTVPSSNFGTQTYTCNVDHKPSNTKVDKTVERKSCVECPPCPAPPAAAPSVFLFPPKPKDTLMISRTPEVTCVVVDVSHEDPEVQFNWYVDGVEVHNAKTKPREEQFNSTFRVVSVLTVVHQDWLNGKEYKCKVSNKGLPAPIEKTISKTKGQPREPQVYTLPPSREEMTKNQVSLTCLVKGFYPSDIAVEWESNGQPENNYKTTPPMLDSDGSFFLYSKLTVDKSRWQQGNVFSCSVMHEALHNHYTQKSLSLSPG light: DIQMTQSPSSLSASVGDRVTITCRASENIYRNLAWYQQKPGKAPKLLLYAATNLADGVPSRFSGSGSGTDYTLTISSLQSEDFATYYCQHFWGTPWTFGQGTKVEIKRTVAAPSVFIFPPSDEQLKSGTASVVCLLNNFYPREAKVQWKVDNALQSGNSQESVTEQDSKDSTYSLSSTLTLSKADYEKHKVYACEVTHQGLSSPVTKSFNRGEC
6 | 5.7 | 5.9 | humanized antibody No. 152 (antibody, human IgG2, human Ig kappa; also called L1-5/HA1) heavy: QVQLVQSGSELKKPGASVKVSCKASGYTFTDYSMHWVRQAPGQGLEWMGWINTETGEPTYAQGFTGRFVFSLDTSVSTAYLQISSLKAEDTAVYYCARIPLYYYGSRYWYFDVWGQGTTVTVSSASTKGPSVFPLAPSSRSTSESTAALGCLVKDYFPEPVTVSWNSGALTSGVHTFPAVLQSSGLYSLSSVVTVPSSNFGTQTYTCNVDHKPSNTKVDKTVERKSCVECPPCPAPPAAAPSVFLFPPKPKDTLMISRTPEVTCVVVDVSHEDPEVQFNWYVDGVEVHNAKTKPREEQFNSTFRVVSVLTVVHQDWLNGKEYKCKVSNKGLPAPIEKTISKTKGQPREPQVYTLPPSREEMTKNQVSLTCLVKGFYPSDIAVEWESNGQPENNYKTTPPMLDSDGSFFLYSKLTVDKSRWQQGNVFSCSVMHEALHNHYTQKSLSLSPG light: DIQMTQSPSSLSASVGDRVTITCRASENIYRNLAWYQQKPGKAPKLLLYAATNLADGVPSRFSGSGSGTDYTLTISSLQSEDFATYYCQHFWGTPWTFGQGTKVEIKRTVAAPSVFIFPPSDEQLKSGTASVVCLLNNFYPREAKVQWKVDNALQSGNSQESVTEQDSKDSTYSLSSTLTLSKADYEKHKVYACEVTHQGLSSPVTKSFNRGEC
7 | 5.6 | 5.6 | humanized antibody No. 156 (antibody, human IgG2, human Ig kappa; also called L1-6/HA4) heavy: QIQLVQSGSELKKPGASVKVSCKASGYTFTDYSMHWVRQAPGQGLKWMGWINTETGEPTYAQGFTGRFVFSLDTSVSTAYLQISSLKAEDTAVYYCARIPLYYYGSRYWYFDVWGQGTTVTVSSASTKGPSVFPLAPSSRSTSESTAALGCLVKDYFPEPVTVSWNSGALTSGVHTFPAVLQSSGLYSLSSVVTVPSSNFGTQTYTCNVDHKPSNTKVDKTVERKSCVECPPCPAPPAAAPSVFLFPPKPKDTLMISRTPEVTCVVVDVSHEDPEVQFNWYVDGVEVHNAKTKPREEQFNSTFRVVSVLTVVHQDWLNGKEYKCKVSNKGLPAPIEKTISKTKGQPREPQVYTLPPSREEMTKNQVSLTCLVKGFYPSDIAVEWESNGQPENNYKTTPPMLDSDGSFFLYSKLTVDKSRWQQGNVFSCSVMHEALHNHYTQKSLSLSPG light: DIQMTQSPSSLSASVGDRVTITCRASENIYRNLAWYQQKPGKAPQLLLYAATNLADGVPSRFSGSGSGTDYTLTISSLQPEDFATYYCQHFWGTPWTFGQGTKVEIKRTVAAPSVFIFPPSDEQLKSGTASVVCLLNNFYPREAKVQWKVDNALQSGNSQESVTEQDSKDSTYSLSSTLTLSKADYEKHKVYACEVTHQGLSSPVTKSFNRGEC
